One test concerns MCF7 breast cancer cells. Put plainly: Western blot of PTP1B after ligand stimulation. The note with it: ligand 10 ng/ml, vs untreated control. The class given is cell-based, human. In general terms: Immunoblotting shows a protein as a band on a membrane.
For the next test, the system named is NK-92 cells. Briefly: Proseek secreted proteins, NK-92 culture. The class given is cell-based. As to conditions: NK92 culture. As to the method: Secreted proteins from cell cultures where quantified using multiplexed proximity extension assay, Proseek (Assarsson E et al PlosOne 2014) by Olink Proteomics AB (Uppsala Sweden). Data is presented as Normalized Protein Expression (NPX log 2-scale). The Oncology I v2 92-plex panel was run. NK-92 cells were cultured in RPMI-1640 supplemented with 10% FBS, 12.5% Horse serum, L-glutamine, IL2 and 3-mercaptoethanol.

A further test concerns PBMC. Put plainly: Proseek secreted proteins, PBMC culture. It counts as cell-based. How it is done:
Secreted proteins from cell cultures where quantified using multiplexed proximity extension assay, Proseek (Assarsson E et al PlosOne 2014) by Olink Proteomics AB (Uppsala Sweden). Data is presented as Normalized Protein Expression (NPX log 2-scale). The Oncology I v2 92-plex panel was run.
A cell suspension of heparinized peripheral blood was diluted 1:1 and placed on a Ficoll Paque Plus. Cells were centrifuged at 400×g for 30 minutes and the PBMC layer was transferred to a 50 ml tube of PBS and centrifuged for 7 min at 250×g.

The source of these data is patent US11406665B2, “Therapeutic peptides that target TGF-beta interaction” (GENAGON THERAPEUTICS AB, priority 2017, dated 2022).

B1: TGFb3: TGF-β isoform 3, ligand for CLPTM1 (protein)
chain: ALDTNYCFRNLEENCCVRPLYIDFRQDLGWKWVHEPKGYYANFCSGPCPYLRSADTTHSTVLGLYNTLNPEASASPCCVPQDLEPLTILYYVGRTPKVEQLSNMVVKSCKCS
Regarding B1, in the test with MCF7 breast cancer cells, the PTP1B level entry is reported as “significantly reduced”. The Caspase-3 secretion result in the test with NK-92 cells is on record as “increased”. Further, in the test on PBMC, the CXCL9 secretion result is listed as “reduced” and the CXCL11 secretion entry was “reduced”.
